US20220153832A1 (PIONYR IMMUNOTHERAPEUTICS, published 2022)
Residue numbers refer to the chain shown, from its start. Each block holds one binder with its values, some of them ahead of it.

Assays:
[1] = biological target: T1, Human Macrophage Receptor with Collagenous Structure (MARCO), full length, on cells (human, UniProt Q9UEW3 1-520); test: flow cytometry, 293T (HuMARCO)
T1 construct: the cell type is named under assay; also called huMARCO; HuMARCO
T1 sequence: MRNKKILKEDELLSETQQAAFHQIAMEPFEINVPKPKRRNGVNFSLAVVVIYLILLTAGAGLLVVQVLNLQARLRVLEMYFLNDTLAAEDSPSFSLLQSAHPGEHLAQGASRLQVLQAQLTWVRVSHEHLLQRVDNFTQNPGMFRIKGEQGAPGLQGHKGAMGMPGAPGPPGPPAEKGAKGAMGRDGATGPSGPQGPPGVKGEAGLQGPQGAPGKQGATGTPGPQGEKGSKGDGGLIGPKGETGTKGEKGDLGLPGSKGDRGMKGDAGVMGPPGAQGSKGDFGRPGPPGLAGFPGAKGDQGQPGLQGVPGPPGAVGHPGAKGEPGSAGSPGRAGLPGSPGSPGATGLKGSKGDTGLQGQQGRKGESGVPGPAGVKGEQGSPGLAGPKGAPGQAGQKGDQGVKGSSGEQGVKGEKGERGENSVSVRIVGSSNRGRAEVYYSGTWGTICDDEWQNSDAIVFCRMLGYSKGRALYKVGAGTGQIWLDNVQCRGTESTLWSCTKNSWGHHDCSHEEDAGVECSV
Method: Supernatants were removed and cell pellets were resuspended in Ca²⁺+ and Mg²⁺+ Dulbecco's phosphate-buffered saline (D-PBS) at 1×10⁶ cells/ml. 100,000 cells/well were plated onto U-bottom 96-well plates for staining and all centrifugation steps were performed at 1500 rpm at 4° C. for 5 min and samples were kept protected from light throughout the protocol. Cells were pelleted and resuspended in 100 μl of Zombie NIR viability dye (BioLegend) prepared by diluting Zombie NIR dimethyl sulfoxide (DMSO) stock 1000-fold in D-PBS. Cells were stained by incubation for 10 min at room temperature (RT) in the dark, followed by quenching the staining reaction with the addition of 100 μl of Staining Medium (D-PBS containing 2% FBS and 2 mM ethylenediaminetetraacetic acid (EDTA). Cells were pelleted and resuspended in 100 μl of the different antibodies and hybridomas supernatants needed for screening and corresponding isotype controls in freshly prepared staining medium, such as PI-M014 and mIgG2b isotype. All mAbs were tested at the final top concentration of 100 nM (15 μg/ml) followed by an 8-point three-fold serial dilution, including 0 mg/ml control. Staining was carried out for 1 hour (hr) on ice, followed by 2 washes in Staining Medium. Cells were then pelleted and resuspended in 100 μl of allophycocyanin (APC)-conjugated goat anti-mouse IgG (Fc-specific) secondary antibody, prepared by 500-fold dilution of the antibody stocks in Staining Medium, and incubated for 30 min on ice. Plates were then washed two times with Staining Medium, followed by resuspension in 150 μl of the same buffer for acquisition on the flow cytometer (Attune NxT, Life Technologies). Flow cytometry data were analyzed using FlowJo software (version 10.6.1) and data were processed and further analyzed in Microsoft Excel and GraphPad Prism software (version 8). Half-maximal effective concentrations (EC₅₀) were calculated based on geometric mean fluorescence intensities (gMFI). In case when the plates were not able to be analyzed on the cytometer, cells were pelleted after the washes and fixed in 100 μl of 2% paraformaldehyde (PFA), prepared by diluting the 16% (w/v) stock (Thermo Fisher) in DPBS, for 15 min at RT. Cells were then pelleted and the fixative was removed, followed by resuspension in 150 μl of Staining Medium and stored at 4° C. until acquisition on the flow cytometer.

[2] = biological target: T1, Human Macrophage Receptor with …; test: cell-based competition with AF488 E. coli binding to cells expressing MARCO
Method: Zombie NIR viability dye (BioLegend), prepared by diluting the stock 1000-fold in D-PBS, was added to the cells and incubated for 10 min at RT in the dark. The reaction was quenched by adding 1 m of 4× Staining buffer (2% FBS in DBPS containing Ca2+), followed by centrifugation at 400×g for 5 min at 4° C. Cells were then plated in V-shaped 96 well plates at a density of 100,000 cells. A488-fluorescently labeled bacteria (E. coli from Invitrogen) was added at 10 μg/ml with the anti-human MARCO antibodies of interest for a 30 min incubation at 37 C. Plates were then washed twice followed by resuspension in 100 ul of staining buffer for acquisition on the flow cytometer (Attune NxT, Life Technologies). Flow cytometry data were analyzed using FlowJo software (version 10.6.1) and data were processed and further analyzed in Microsoft Excel and GraphPad Prism software (version 8).

[3] = biological target: T2, N-terminally polyhistidine tagged human MARCO ECD (147-520), recombinant (human, UniProt Q9UEW3 147-520); test: ELISA on recombinant human MARCO, 0 mM EDTA
T2 construct: also called PI-RG-3000; recombinant human MARCO; not shown: N-terminal polyhistidine tag
T2 sequence: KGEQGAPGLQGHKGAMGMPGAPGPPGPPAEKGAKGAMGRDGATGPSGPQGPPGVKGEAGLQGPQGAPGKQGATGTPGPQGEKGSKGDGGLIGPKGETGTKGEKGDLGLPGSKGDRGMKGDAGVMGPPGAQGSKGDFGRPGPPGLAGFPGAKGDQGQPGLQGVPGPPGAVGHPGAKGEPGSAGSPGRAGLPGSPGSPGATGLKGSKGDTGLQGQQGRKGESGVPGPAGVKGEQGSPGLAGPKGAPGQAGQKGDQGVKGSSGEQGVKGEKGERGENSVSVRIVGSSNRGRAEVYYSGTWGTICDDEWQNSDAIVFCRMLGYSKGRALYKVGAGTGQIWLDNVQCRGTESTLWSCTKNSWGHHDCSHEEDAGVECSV
Method: (§1) After the plates were incubated at room temperature for 1 hour or 4° C. overnight, the plates were wash 3 times with ELISA wash buffer (PBS/0.05% TWEEN-20), then hybridoma supernatant (1:5 dilution) or purified antibody (1 ug) was diluted in DPBS/Ca2+/2% FBS, DPBS without Ca2+/2 mM EDTA/2% FBS, DPBS without Ca2+/10 mM EDTA/2% FBS, and DPBS without Ca2+/50 mM EDTA/2% FBS. Plates again were incubated at room temperature for 1 hour.

[4] = biological target: T2, N-terminally polyhistidine tagged human …; test: ELISA on recombinant human MARCO, 10 mM EDTA
Method: as §1

[5] = biological target: T2, N-terminally polyhistidine tagged human …; test: ELISA on recombinant human MARCO, 50 mM EDTA
Method: as §1

B1: PI-HX-3061 (antibody, rat IgG2a)
heavy: EVQLVESGGGLVQPGSSLKLSCVASKFTFSNYGMNWIRQAPKKGLEWIALIYYNSNNKYYADSVKGRFTISRDNSKNTLYLEMNSLRSEDTAMYYCAKSLTGGSDYFDSWGQGVMVTVSSAETTAPSVYPLAPGTALKSNSMVTLGCLVKGYFPEPVTVTWNSGALSSGVHTFPAVLQSGLYTLTSSVTVPSSTWPSQTVTCNVAHPASSTKVDKKIVPRNCGGDCKPCICTGSEVSSVFIFPPKPKDVLTITLTPKVTCVVVDISQDDPEVHFSWFVDDVEVHTAQTRPPEEQFNSTFRSVSELPILHQDWLNGRTFRCKVTSAAFPSPIEKTISKPEGRTQVPHVYTMSPTKEEMTQNEVSITCMVKGFYPPDIYVEWQMNGQPQENYKNTPPTMDTDGSYFLYSKLNVKKEKWQQGNTFTCSVLHEGLHNHHTEKSLSHSP
light: DVQMTQSPSYLAASPGESVSISCKASKSIGTFLAWYQEKPEKTNKLLIYSGSTLQSGTPSRFSGSGSGTDFTLTIRNLEPEDFAVYYCQQHDEYPFTFGSGTKLEIKRADAAPTVSIFPPSTEQLATGGASVVCLMNNFYPRDISVKWKIDGTERRDGVLDSVTDQDSKDSTYSMSSTLSLTKADYESHNLYTCEVVHKTSSSPVVKSFNRNEC
notes: Parental rat hybridoma, rat IgG2a; cross reactive with human and mouse MARCO
EC50 [1]: 0.49 nM

B3: PI-HX-3031 (antibody)
heavy: QVQLKESGPGLVQPSQTLSLTCTVSGFSLTSYHVSWVRQPPGKGLEWMGAIWTGGSIAYNSLLKSRLSISRDTSKSQVFLKMNSLQTEDTATYYCARDLSDYYSSYTSFDYWGQGVMVTVSTAETTAPSVYPLAPGTALKSNSMVTLGCLVKGYFPEPVTVTWNSGALSSGVHTFPAVLQSGLYTLTSSVTVPSSTWSSQAVTCNVAHPASSTKVDKKIVPRECNPCGCTGSEVSSVFIFPPKTKDVLTITLTPKVTCVVVDISQNDPEVRFSWFIDDVEVHTAQTHAPEKQSNSTLRSVSELPIVHRDWLNGKTFKCKVNSGAFPAPIEKSISKPEGTPRGPQVYTMAPPKEEMTQSQVSITCMVKGFYPPDIYTEWKMNGQPQENYKNTPPTMDTDGSYFLYSKLNVKKETWQQGNTFTCSVLHEGLHNHHTEKSLSHSP
light: DIQMTQSPASLSTSLGETVSIECLASEGISNDLAWYQQKSGKSPQLLIYAASRLQDGVPSRFSGSGSGTRYSLKISGMQPEDEADYFCQQSYKYPLTFGSGTKLEIKRADAAPTVSIFPPSTEQLATGGASVVCLMNNFYPRDISVKWKIDGTERRDGVLDSVTDQDSKDSTYSMSSTLSLTKADYESHNLYTCEVVHKTSSSPVVKSFNRNEC
notes: Parental rat hybridoma, rat IgG2a
EC50 [1]: 0.141 nM
ELISA signal (A450) [3]: 1.37
ELISA signal (A450) [4]: 0.0589
ELISA signal (A450) [5]: 0.0754

B4: PI-HX-3043 (antibody, rat IgG2a)
heavy: QVNLLQSRAALVKPGASVKLSCKASGYTFTDYYLHWVKQSHAKSLEWIGYINPNNAYTSYNEKFKSKATLTVDKSTNTAYMELSRLTSADSATYYCARDTTDYYNLHFAYWGQGTLVTVSSAETTAPSVYPLAPGTALKSNSMVTLGCLVKGYFPEPVTVTWNSGALSSGVHTFPAVLQSGLYTLTSSVTVPSSTWSSQAVTCNVAHPASSTKVDKKIVPRECNPCGCTGSEVSSVFIFPPKTKDVLTITLTPKVTCVVVDISQNDPEVRFSWFIDDVEVHTAQTHAPEKQSNSTLRSVSELPIVHRDWLNGKTFKCKVNSGAFPAPIEKSISKPEGTPRGPQVYTMAPPKEEMTQSQVSITCMVKGFYPPDIYTEWKMNGQPQENYKNTPPTMDTDGSYFLYSKLNVKKETWQQGNTFTCSVLHEGLHNHHTEKSLSHSP
light: B3 light with T13A, A25T, A50D, Q55E, P80T
notes: as for B3
EC50 [1]: 0.438 nM
ELISA signal (A450) [3]: 1.2
ELISA signal (A450) [4]: 0.06
ELISA signal (A450) [5]: 0.1

More lines, now with the values ahead:

EC50 [2]: 0.5 nM
B2: PI-3015-AB (antibody, human IgG1, kappa)
heavy: not shown
light: DIQMTQSPSSLSASVGDRVTITCRASEGISNDLAWYQQKPGKAPKLLIYAASRLQSGVPSRFSGSGSGTDYTLTISSMQPEDFATYYCQQSYKYPLTFGQGTKLEIKRTVAAPSVFIFPPSDEQLKSGTASVVCLLNNFYPREAKVQWKVDNALQSGNSQESVTEQDSKDSTYSLSSTLTLSKADYEKHKVYACEVTHQGLSSPVTKSFNRGEC

EC50 [2]: 0.44 nM
B5: PI-3010-AB (antibody, human IgG1, kappa)
heavy: not shown
light: DIQMTQSPASLSTSLGETVSIECLASEGISNDLAWYQQKSGKSPQLLIYAASRLQDGVPSRFSGSGSGTRYSLKISGMQPEDEADYFCQQSYKYPLTFGSGTKLEIKRTVAAPSVFIFPPSDEQLKSGTASVVCLLNNFYPREAKVQWKVDNALQSGNSQESVTEQDSKDSTYSLSSTLTLSKADYEKHKVYACEVTHQGLSSPVTKSFNRGEC
